# Reference: patent US20240132578A1
# Assays:
# Test in all cases: cell-based or functional assay
# [1] = target: HIV-1 Env of isolate MGRM-C-020 (subtype C), on pseudovirus (HIV-1)
# [2] = target: HIV-1 Env of isolate 94 KE 105 (pseudovirus) (HIV-1)
# [3] = target: HIV-1 Env of isolate MGRM-AE-003 (pseudovirus) (HIV-1)
# [4] = target: HIV-1 Env of isolate MGRM-G-017 (subtype G) (HIV-1)
# [5] = target: HIV-1 Env of isolate MGRM-G-016 (subtype G) (HIV-1)
# [6] = target: HIV-1 Env of pseudovirus isolate APV-13 (clade B) (HIV-1)
# [7] = target: HIV-1 envelope glycoprotein (Env) of isolate 92WR024, subtype A (HIV-1)
# [8] = target: HIV-1 Env of isolate MGRM-AE-007 (pseudovirus) (HIV-1)
# [9] = target: HIV-1 envelope glycoprotein (Env) of isolate MG RM-A-003, subtype A (HIV-1)
# [10] = target: HIV-1 92UG024 envelope protein (Env) on pseudovirus (HIV-1)
# [11] = target: HIV-1 JR-CSF Env I414A (HIV-1 (isolate JR-CSF)) (UniProt P20871)
# [12] = target: HIV-1 92TH021 Env (pseudovirus) (HIV-1)
# [13] = target: HIV-1 envelope glycoprotein (Env) of isolate APV_17, on pseudovirus (HIV-1)
# [14] = target: HIV-1 envelope glycoprotein (Env) of isolate MG RM-A-004, subtype A (HIV-1)
# [15] = target: HIV-1 Env of isolate MGRM-AG-006 (pseudovirus) (HIV-1)
# [16] = target: HIV-1 Env of isolate MGRM-AG-011 (pseudovirus) (HIV-1)
# [17] = target: HIV-1 envelope glycoprotein (Env) of isolate MGRM-Chronic-B-018, on pseudovirus (HIV-1)
# [18] = target: HIV-1 envelope glycoprotein (Env) of isolate 92UG037, subtype A (HIV-1)
# [19] = target: HIV-1 Env of isolate MGRM-D-021 (pseudovirus) (HIV-1)
# [20] = target: HIV-1 Env of isolate MGRM-D-004 (pseudovirus) (HIV-1)
# [21] = target: HIV-1 Env of isolate MGRM-D-024 (HIV-1)
# [22] = target: HIV-1 Env of isolate MGRM-F1-015 (HIV-1)
# [23] = target: HIV-1 Env of isolate MGRM-Chronic-B-008 (HIV-1)
# [24] = target: HIV-1 Env of isolate 92RW008 (pseudovirus) (HIV-1)
# [25] = target: HIV-1 Env of pseudovirus isolate MGRM-C-014 (clade C) (HIV-1)
# [26] = target: HIV-1 Env of isolate MGRM-F1-018 (HIV-1)
# [27] = target: HIV-1 Env of isolate MGRM-F1-006 (HIV-1)
# Sequence of 4995_P16 (PGT-145) (antibody) (VH): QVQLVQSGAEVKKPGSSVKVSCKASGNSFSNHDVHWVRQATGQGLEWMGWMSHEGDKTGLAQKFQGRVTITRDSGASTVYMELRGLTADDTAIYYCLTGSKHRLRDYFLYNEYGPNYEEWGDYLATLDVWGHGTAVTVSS
# Sequence of 4995_P16 (PGT-145) (antibody) (VL): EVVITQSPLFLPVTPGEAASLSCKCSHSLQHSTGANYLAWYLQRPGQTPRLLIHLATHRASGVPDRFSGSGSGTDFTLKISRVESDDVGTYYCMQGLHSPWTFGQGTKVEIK
# Sequence of 4995_E20 (PGT-142) (antibody) (VH): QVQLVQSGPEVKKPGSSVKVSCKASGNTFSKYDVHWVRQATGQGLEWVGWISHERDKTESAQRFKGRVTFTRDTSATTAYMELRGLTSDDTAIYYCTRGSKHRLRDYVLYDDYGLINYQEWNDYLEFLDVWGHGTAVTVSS
# Sequence of 4995_E20 (PGT-142) (antibody) (VL): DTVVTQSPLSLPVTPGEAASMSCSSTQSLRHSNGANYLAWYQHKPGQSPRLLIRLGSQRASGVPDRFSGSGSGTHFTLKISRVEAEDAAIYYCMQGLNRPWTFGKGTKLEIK
# Sequence of 4970_K22 (PGT-144) (antibody) (VH): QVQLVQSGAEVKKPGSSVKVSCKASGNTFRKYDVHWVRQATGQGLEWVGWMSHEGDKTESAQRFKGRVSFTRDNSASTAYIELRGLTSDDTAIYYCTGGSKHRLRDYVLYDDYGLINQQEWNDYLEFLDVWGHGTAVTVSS
# Sequence of 4970_K22 (PGT-144) (antibody) (VL): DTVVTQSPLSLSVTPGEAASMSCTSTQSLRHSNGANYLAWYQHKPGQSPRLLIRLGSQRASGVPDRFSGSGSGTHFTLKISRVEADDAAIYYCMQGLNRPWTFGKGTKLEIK
Substance,"IC50, single-round pseudovirus neutralization [1]","IC50 (µg/mL), single-round pseudovirus neutralization [2]","IC50 (µg/mL), single-round pseudovirus neutralization [3]","IC50 (µg/mL), pseudovirus neutralization [4]","IC50 (µg/mL), pseudovirus neutralization [5]","IC50, pseudovirus neutralization [6]","IC50, pseudovirus neutralization [7]","IC50 (µg/mL), pseudovirus neutralization [8]","IC50, pseudovirus neutralization [9]","IC50 (ug/mL), pseudovirus neutralization [10]","IC50, pseudovirus neutralization [13]","IC50, pseudovirus neutralization [14]","IC50 (µg/mL), pseudovirus neutralization [15]","IC50 (µg/mL), pseudovirus neutralization [16]","IC50, pseudovirus neutralization [17]","IC50, pseudovirus neutralization [18]",further results
4995_P16 (PGT-145) (antibody),0.712 µg/mL,1.32 µg/mL,0.552 µg/mL,0.205 µg/mL,0.081 µg/mL,0.337 µg/mL,,,,,,,,,,,
5123_A06 (PGT-125) (antibody),,,,,,,35.5 µg/mL,0.876 µg/mL,> 50 µg/mL,> 10 µg/mL,8.06 µg/mL,> 50 µg/mL,0.008 µg/mL,> 50 µg/mL,> 50 µg/mL,0.005 µg/mL,"Fold IC50 increase relative to wild-type (pseudovirus neutralization) [11]: 0.3 fold; Neutralization by PGT-125, IC50 [12]: 0.0066 µg/mL; Neutralization by PGT-125, IC80 [12]: 0.0292 µg/mL; Neutralization by PGT-125, IC90 [12]: 0.0701 µg/mL; Neutralization by PGT-125, IC95 [12]: 0.157 µg/mL"
4970_K22 (PGT-144) (antibody),1.29 µg/mL,0.29 µg/mL,> 50 µg/mL,9.97 µg/mL,> 50 µg/mL,> 50 µg/mL,,,,,,,,,,,
5345_I01 (PGT-137) (antibody),,,,,,,,,,,,,,,,,"IC50 (µg/mL), pseudovirus neutralization [19]: > 50 µg/mL; IC50 (µg/mL), pseudovirus neutralization [20]: > 50 µg/mL; IC50 (µg/mL), pseudovirus neutralization [21]: > 50 µg/mL; IC50 (µg/mL), pseudovirus neutralization [22]: > 50 µg/mL; IC50 (µg/mL), pseudovirus neutralization [23]: > 50 µg/mL; IC50 (µg/mL), pseudovirus neutralization [24]: 0.148 µg/mL; IC50, pseudovirus neutralization [25]: > 50 µg/mL; IC50 (µg/mL), pseudovirus neutralization [26]: > 50 µg/mL; IC50 (µg/mL), pseudovirus neutralization [27]: > 50 µg/mL"
5141_B17 (PGT-126) (antibody),,,,,,,42 µg/mL,> 50 µg/mL,> 50 µg/mL,> 10 µg/mL,0.353 µg/mL,> 50 µg/mL,0.01 µg/mL,24.5 µg/mL,0.052 µg/mL,0.011 µg/mL,Fold IC50 increase relative to wild-type (pseudovirus neutralization) [11]: 0.4 fold
5329_C19 (PGT-136) (antibody),,,,,,,,,,0.0915 µg/mL,,,,,,,"IC50 (µg/mL), pseudovirus neutralization [19]: > 50 µg/mL; IC50 (µg/mL), pseudovirus neutralization [20]: > 50 µg/mL; IC50 (µg/mL), pseudovirus neutralization [21]: > 50 µg/mL; IC50 (µg/mL), pseudovirus neutralization [22]: > 50 µg/mL; IC50 (µg/mL), pseudovirus neutralization [23]: > 50 µg/mL; IC50 (µg/mL), pseudovirus neutralization [24]: > 50 µg/mL; IC50, pseudovirus neutralization [25]: > 50 µg/mL; IC50 (µg/mL), pseudovirus neutralization [26]: > 50 µg/mL; IC50 (µg/mL), pseudovirus neutralization [27]: > 50 µg/mL"
4877_D15 (PGT-122) (antibody),,,,,,,> 50 µg/mL,> 50 µg/mL,3.79 µg/mL,> 10 µg/mL,0.25 µg/mL,> 50 µg/mL,0.028 µg/mL,> 50 µg/mL,> 50 µg/mL,0.068 µg/mL,
4995_E20 (PGT-142) (antibody),0.446 µg/mL,0.19 µg/mL,> 50 µg/mL,0.125 µg/mL,8.17 µg/mL,> 50 µg/mL,,,,,,,,,,,
